# Measurements reported in the supplement of paper PMC9112550, “Optimization of the antimicrobial peptide Bac7 by deep mutational scanning” (BMC Biology, 2022).
# System: Escherichia coli TOP10
# Test: shrunken log2 fold change of peptide-encoding DNA abundance (4.5 h post-induction vs induction); higher = less antimicrobial activity (less host growth inhibition)
# Conditions: time post-induction: 4.5 h; library: site-saturation at positions 5, 18, 19, 20
# 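Further: peptides expressed intracellularly from a pBAD plasmid library in pooled LB shake-flask culture, induced with 0.3% L-arabinose, DNA abundance read by NGS, three biological replicates, DESeq2 with apeglm shrinkage.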
row,Sequence,shrunken log2 fold change
1,RRIRVRPPRLPRPRPRPVFKPRP,-0.196
2,RRIRHRPPRLPRPRPRPFWIPRP,-0.364
3,RRIRARPPRLPRPRPRPILHPRP,-0.0341
4,RRIRYRPPRLPRPRPRPCNNPRP,-0.331
5,RRIRQRPPRLPRPRPRPHTFPRP,-0.174
6,RRIRSRPPRLPRPRPRPPPMPRP,0.817
7,RRIRSRPPRLPRPRPRPRQRPRP,0.293
8,RRIRMRPPRLPRPRPRPLSPPRP,0.345
9,RRIRARPPRLPRPRPRPHLPPRP,0.0943
10,RRIRSRPPRLPRPRPRPDSVPRP,0.107
11,RRIRPRPPRLPRPRPRPTSCPRP,0.193
12,RRIRLRPPRLPRPRPRPETSPRP,-0.0221
13,RRIRDRPPRLPRPRPRPDYHPRP,-0.0139
14,RRIRHRPPRLPRPRPRPIMFPRP,-0.439
15,RRIRSRPPRLPRPRPRPKCMPRP,-0.218
16,RRIRDRPPRLPRPRPRPPPNPRP,0.84
17,RRIRMRPPRLPRPRPRPLHNPRP,-0.127
18,RRIRGRPPRLPRPRPRPHVLPRP,-0.00476
19,RRIRGRPPRLPRPRPRPSRMPRP,0.22
20,RRIRQRPPRLPRPRPRPQCMPRP,-0.496
21,RRIRIRPPRLPRPRPRPYKFPRP,-0.616
22,RRIRPRPPRLPRPRPRPAIMPRP,-0.00756
23,RRIRWRPPRLPRPRPRPNFCPRP,0.0758
24,RRIRFRPPRLPRPRPRPYGRPRP,-0.0926
25,RRIRERPPRLPRPRPRPHDRPRP,-0.00992
26,RRIRWRPPRLPRPRPRPNKCPRP,-0.109

row,Sequence,shrunken log2 fold change
1,RRIRYRPPRLPRPRPRPESGPRP,-0.0308
2,RRIRSRPPRLPRPRPRPRNSPRP,-0.264
3,RRIRNRPPRLPRPRPRPAAQPRP,0.401
4,RRIRSRPPRLPRPRPRPAHWPRP,0.416
5,RRIRPRPPRLPRPRPRPMCRPRP,-0.263
6,RRIRMRPPRLPRPRPRPIKNPRP,0.387
7,RRIRCRPPRLPRPRPRPQHTPRP,-0.0159
8,RRIRGRPPRLPRPRPRPSWVPRP,0.0128
9,RRIRLRPPRLPRPRPRPESHPRP,-0.118
10,RRIRIRPPRLPRPRPRPEWWPRP,-0.0654
11,RRIRTRPPRLPRPRPRPHHAPRP,-0.00367
12,RRIRCRPPRLPRPRPRPHNSPRP,-0.273
13,RRIRLRPPRLPRPRPRPFSDPRP,0.0391
14,RRIRVRPPRLPRPRPRPLYRPRP,-0.047
15,RRIRLRPPRLPRPRPRPLIIPRP,-0.631
16,RRIRPRPPRLPRPRPRPNIPPRP,-0.355
17,RRIRVRPPRLPRPRPRPEAEPRP,0.807
18,RRIRGRPPRLPRPRPRPPPSPRP,1.22
19,RRIRRRPPRLPRPRPRPGKCPRP,-0.283
20,RRIRIRPPRLPRPRPRPIALPRP,-0.149
21,RRIRRRPPRLPRPRPRPTIIPRP,-0.159
22,RRIRCRPPRLPRPRPRPKRNPRP,0.34
23,RRIRRRPPRLPRPRPRPFCLPRP,0.194
24,RRIRSRPPRLPRPRPRPQCPPRP,-0.172
25,RRIRVRPPRLPRPRPRPSALPRP,-0.0271
